Test results taken from publication PMC6056499 (2018).
Values belong to the binder of their own block, whether it stands above or below them.

Key:
[1] = target: T1, human β-Klotho extracellular domain (aa1–992) fused with a 6 × His tag at the C-terminus (human, UniProt Q86Z14 1-992, biotin (EZ-Link Sulfo-NHS-LC-Biotin) in the bio-layer interferometry); assay: competition with FGF21 (AlphaScreen)
[2] = target: T1, human β-Klotho extracellular domain …; assay: competition with FGF19 (AlphaScreen)
[3] = target: T1, human β-Klotho extracellular domain …; assay: AlphaScreen, competition with FGF19
[4] = target: T1, human β-Klotho extracellular domain …; assay: AlphaScreen, competition with FGF21
[5] = target: T1, human β-Klotho extracellular domain …; assay: BLI
[6] = target: T1, human β-Klotho extracellular domain …; assay: ELISA; solid-phase binding assay
[7] = target: T1, human β-Klotho extracellular domain …; assay: AlphaScreen, biotinylated FGF

T1 sequence (Q86Z14 53-992): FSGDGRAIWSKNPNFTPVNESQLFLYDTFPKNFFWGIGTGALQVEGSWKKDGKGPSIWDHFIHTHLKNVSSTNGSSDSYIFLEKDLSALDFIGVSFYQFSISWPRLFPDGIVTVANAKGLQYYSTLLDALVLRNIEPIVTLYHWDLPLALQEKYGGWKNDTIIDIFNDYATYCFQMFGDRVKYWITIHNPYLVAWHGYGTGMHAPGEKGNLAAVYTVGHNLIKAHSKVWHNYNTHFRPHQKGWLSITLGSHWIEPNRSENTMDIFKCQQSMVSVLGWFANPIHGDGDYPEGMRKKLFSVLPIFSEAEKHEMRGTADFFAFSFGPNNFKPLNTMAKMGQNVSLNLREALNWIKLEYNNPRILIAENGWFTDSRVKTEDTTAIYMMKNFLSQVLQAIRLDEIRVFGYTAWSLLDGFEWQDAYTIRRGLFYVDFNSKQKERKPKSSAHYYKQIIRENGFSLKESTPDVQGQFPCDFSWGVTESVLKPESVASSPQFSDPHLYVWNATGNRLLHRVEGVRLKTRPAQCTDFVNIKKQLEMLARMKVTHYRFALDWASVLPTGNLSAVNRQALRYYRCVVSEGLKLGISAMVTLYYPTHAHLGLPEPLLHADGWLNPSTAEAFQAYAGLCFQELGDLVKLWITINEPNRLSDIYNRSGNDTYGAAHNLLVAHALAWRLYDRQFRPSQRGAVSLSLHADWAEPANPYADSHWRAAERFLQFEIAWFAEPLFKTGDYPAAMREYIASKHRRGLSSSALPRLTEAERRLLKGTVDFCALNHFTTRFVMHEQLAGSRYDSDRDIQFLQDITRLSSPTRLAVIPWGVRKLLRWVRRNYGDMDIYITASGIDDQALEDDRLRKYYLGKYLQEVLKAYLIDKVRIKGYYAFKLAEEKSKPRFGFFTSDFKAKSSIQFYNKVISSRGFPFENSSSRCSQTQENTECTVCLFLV

- IC50 [2]: 5.2 nM
B3: FGF21 183-209 188V-A (peptide)
chain: PQPPDAGSSDPLSMVGPSQGRSPSYAS

- Kd [5]: 1.36 nM
- EC50 [6]: 0.6 nM
B6: mature human FGF21 polypeptide fused with the human Fc fragment at the N-terminus (Fc-FGF21), wild type (Fc fusion)
chain: HPIPDSSPLLQFGGQVRQRYLYTDDAQQTEAHLEIREDGTVGGAADQSPESLLQLKALKPGVIQILGVKTSRFLCQRPDGALYGSLHFDPEACSFRELLLEDGYNVYQSEAHGLPLHLPGNKSPHRDPAPRGPARFLPLPGLPPALPEPPGILAPQPPDVGSSDPLSMVGPSQGRSPSYAS

- IC50 [2]: 0.28 nM
B9: FGF21 183-209 203R-A (peptide)
chain: PQPPDVGSSDPLSMVGPSQGASPSYAS

Continued, binder first:

B1: FGF21 183-209 183P-A (peptide)
chain: AQPPDVGSSDPLSMVGPSQGRSPSYAS
- IC50 [1]: 4.5 nM
- IC50 [2]: 1 nM

B2: FGF19 C-terminal peptide, WT FGF19^185–216 (peptide)
peptide: SDMFSSPLETDSMDPFGLVTGLEAVRSPSFEK
- IC50 [3]: 46.7 nM
- IC50 [4]: 346 nM

B4: FGF21 183-209 193P-A (peptide)
chain: PQPPDVGSSDALSMVGPSQGRSPSYAS
- IC50 [2]: 5.5 nM

B5: FGF21 183-209 (peptide)
chain: PQPPDVGSSDPLSMVGPSQGRSPSYAS
- IC50 [1]: 2.1 nM
- IC50 [2]: 0.52 nM

B7: mature human FGF21 (ligand)
chain: B6 chain
modifications: biotin (EZ-Link Sulfo-NHS-LC-Biotin) in the solid-phase binding assay; biotinylated as the labelled ligand in AlphaScreen
- Kd [5]: 5.17 nM
- EC50 [7]: 2.81 nM
- IC50 [3]: 5.7 nM
- IC50 [4]: 23.1 nM

B8: FGF21 183-209 198G-A (peptide)
chain: PQPPDVGSSDPLSMVAPSQGRSPSYAS
- IC50 [1]: 6 nM
- IC50 [2]: 2.6 nM
